Results as given in the FLAb antibody collection.

Assay: patients with anti-drug antibodies; higher = more immunogenic

Row | Protein | patients with anti-drug antibodies
1 | unnamed (protein) chain 1: EVQLVESGGGVVQPGKSLRLSCAASGLTFSSYAVHWVRQAPGKGLEWVTLISYDGANQYYADSVKGRFTISRDNSKNTVYLQMNSLRPEDTAVYYCAVPGPVFGIFPPWSYFDNWGQGILVTVSS chain 2: EIVLTQSPATLSVSPGERATLSCRASQVISHNLAWYQQKPGQAPRLLIYGASTRASGIPARFSGSGSGTDYTLTITSLQSEDFAVYYCQHYSNWPPRLTFGGGTKVEIK | 1%
2 | unnamed (protein) chain 1: QVQLVESGGGLVQPGGSLRLSCAASGFTFRSYAMSWVRQAPGKGLEWVSAISGRGDNTYYADSVKGRFTISRDNSKNTLYLQMNSLRAEDTAVYYCAKMTSNAFAFDYWGQGTLVTVSS chain 2: QSVLTQPPSVSGAPGQRVTISCTGSSSNIGAGYGVHWYQQLPGTAPKLLIYGNTNRPSGVPDRFSGFKSGTSASLAITGLQAEDEADYYCQSYDSSLSGWVFGGGTKLTVL | 2.9%
3 | unnamed (protein) chain 1: QVQLVQSGAEVKKPGSSVKVSCKASGYTFGNYWMQWVRQAPGQGLEWMGAIYEGTGKTVYIQKFADRVTITADKSTSTAYMELSSLRSEDTAVYYCARLSDYVSGFGYWGQGTTVTVSS chain 2: DIQMTQSPSSLSASVGDRVTITCRASKDISKYLNWYQQKPGKAPKLLIYYTSGYHSGVPSRFSGSGSGTDFTLTISSLQPEDFATYYCQQGDALPPTFGGGTKVEIK | 8.7%
4 | unnamed (protein) chain 1: QVQLQESGPGLVRPSQTLSLTCTVSGFTFTDFYMNWVRQPPGRGLEWIGFIRDKAKGYTTEYNPSVKGRVTMLVDTSKNQFSLRLSSVTAADTAVYYCAREGHTAAPFDYWGQGSLVTVSS chain 2: DIQMTQSPSSLSASVGDRVTITCKASQNIDKYLNWYQQKPGKAPKLLIYNTNNLQTGVPSRFSGSGSGTDFTFTISSLQPEDIATYYCLQHISRPRTFGQGTKVEIK | 5.1%
5 | unnamed (protein) chain 1: QVQLQESGPGLVKPSETLSLTCAVSGGSISGGYGWGWIRQPPGKGLEWIGSFYSSSGNTYYNPSLKSQVTISTDTSKNQFSLKLNSMTAADTAVYYCVRDRLFSVVGMVYNNWFDVWGPGVLVTVSS chain 2: ESALTQPPSVSGAPGQKVTISCTGSTSNIGGYDLHWYQQLPGTAPKLLIYDINKRPSGISDRFSGSKSGTAASLAITGLQTEDEADYYCQSYDSSLNAQVFGGGTRLTVL | 0%
6 | unnamed (protein) chain 1: EVQLVESGGGLVQPGGSLRLSCAASGFTLRSYSMNWVRQAPGKGLEWVSYISRSSHTIFYADSVKGRFTISRDNAKNSLYLQMDSLRDEDTAMYYCARVYSSGWHVSDYFDYWGQGILVTVSS chain 2: AIQLTQSPSSLSASVGDRVTITCRASQGISSALAWYQQKPGKAPKLLIYDASSLESGVPSRFSGSGSGTDFTLTISSLQPEDFATYYCQQFNSYPLTFGGGTKVEIK | 2.9%
7 | unnamed (protein) chain 1: QVELVESGGGLVQPGGSLRLSCAASGFTFSSYAMSWVRQAPGKGLEWVSAINASGTRTYYADSVKGRFTISRDNSKNTLYLQMNSLRAEDTAVYYCARGKGNTHKPYGYVRYFDVWGQGTLVTVSS chain 2: DIVLTQSPATLSLSPGERATLSCRASQSVSSSYLAWYQQKPGQAPRLLIYGASSRATGVPARFSGSGSGTDFTLTISSLEPEDFATYYCLQIYNMPITFGQGTKVEIK | 0%
8 | unnamed (protein) chain 1: EVQLVESGGGLVKPGGSLRLSCAASGFPFSKLGMVWVRQAPGKGLEWVSTISSGGGYTYYPDSVKGRFTISRDNAKNSLYLQMNSLRAEDTAVYYCAREGISFQGGTYTYVMDYWGQGTLVTVSS chain 2: DIVMTQSPLSLPVTPGEPASISCRSSKSLLHRNGITYSYWYLQKPGQSPQLLIYQLSNLASGVPDRFSGSGSGTDFTLKISRVEAEDVGVYYCYQNLELPLTFGQGTKVEIK | 6.5%
9 | unnamed (protein) chain 1: EVQLVQSGAEVKKPGSSVKVSCKASGYTITDSNIHWVRQAPGQSLEWIGYIYPYNGGTDYNQKFKNRATLTVDNPTNTAYMELSSLRSEDTAFYYCVNGNPWLAYWGQGTLVTVSS chain 2: DIQLTQSPSTLSASVGDRVTITCRASESLDNYGIRFLTWFQQKPGKAPKLLMYAASNQGSGVPSRFSGSGSGTEFTLTISSLQPDDFATYYCQQTKEVPWSFGQGTKVEVK | 0%
10 | unnamed (protein) chain 1: EVQLQQPGSELVRPGASVKLSCKASGYTFTSYWMHWVKQRPGQGLEWIGNIYPGSRSTNYDEKFKSKATLTVDTSSSTAYMQLSSLTSEDSAVYYCTRNGDYYVSSGDAMDYWGQGTSVTVSS chain 2: DIQMTQTTSSLSASLGDRVTISCRTSQDIGNYLNWYQQKPDGTVKLLIYYTSRLHSGVPSRFSGSGSGTDFSLTINNVEQEDVATYFCQHYNTVPPTFGGGTKLEIK | 0%
